Measured values reported in patent US20240279288A1, “APPLICATION OF PLANT JAZ PROTEINS AND DERIVED POLYPEPTIDES IN PREVENTION AND TREATMENT OF HUMAN AND ANIMAL TUMORS” (ANYANG INSTITUTE OF SINO-COTTON INDUSTRY INNOVATION, priority 2021, published 2024).

What was measured:
[1] = system: GhCOI1; assay: Luciferase experiment in tobacco leaves with GhCOI1; type: binding, cotton; conditions: no fluorescence on the control
Excerpt: Method of the luciferase experiment: GhJAZ1 (corresponding encoding gene sequence set forth in SEQ ID No. 39) was subcloned into pCAMBIA-CLuc vector (Chen, H., et al. “Firefly Luciferase Complementation Imaging Assay for Protein-Protein Interactions in Plants.” Plant Physiology 146.2(2008):368-376.) between KpnI and SalI cleavage sites, and the transcription factors such as GhMYC2 (corresponding encoding gene sequence set forth in SEQ ID No. 72), GhNINJA (corresponding encoding gene sequence set forth in SEQ ID No. 74), and GhCOI1 (corresponding encoding gene sequence set forth in SEQ ID No. 80) were subcloned into pCAMBIA-NLuc (Chen, H., et al. “Firefly Luciferase Complementation Imaging Assay for Protein-Protein Interactions in Plants.” Plant Physiology 146.2(2008):368-376.) between KpnI and SalI cleavage sites, respectively. […] Luciferase substrates were applied at the infected leaves before taking images and placed in a dark room for at least 6 min to quench fluorescence, followed by observation on the Nightowl-II LB983 instrument, using IndigoBasic software under the luciferase-5 min setting conditions.

[2] = system: GhTPL; assay: CO-IP experiment with GhTPL; type: binding, cotton
Protocol: Steps of method of CO-IP experiment: Non-denaturing lysate was added to 293T cell culture plate (Pricella, Cat. No.: CL-0005), and the cells were completely lysed at 4° C. The lysate was centrifuged at 12,000 rpm for 10 min and the supernatant was collected. The corresponding antibody was added to the obtained non-denatured protein solution, which was incubated overnight at 4° C. Pierce™ protein A/G magnetic agarose (Thermo Fisher Scientific, Inc.) were washed with lysis buffer, followed by addition pre-treated beads to the cell lysate, and incubation at room temperature for 2 hours. The mixture was centrifuged at 4° C., 2,500 rpm for 5 min with supernatant removed, and the agarose beads were washed 5 times with 1 ml of lysis buffer. An appropriate amount of protein loading buffer was added to the pellet, and the sample was incubated in water bath at 100° C. for 10 min. The band of interest was detected by Western blotting.

[3] = target: T1, c-Myc-150aa (Homo sapiens, UniProt P01106); assay: Yeast two hybrid and LUC with c-Myc truncated to first 150 amino acids; type: binding
T1 construct: expressed in transfected cells
Excerpt: […]

Chain of GhCOI1 (as listed by the source): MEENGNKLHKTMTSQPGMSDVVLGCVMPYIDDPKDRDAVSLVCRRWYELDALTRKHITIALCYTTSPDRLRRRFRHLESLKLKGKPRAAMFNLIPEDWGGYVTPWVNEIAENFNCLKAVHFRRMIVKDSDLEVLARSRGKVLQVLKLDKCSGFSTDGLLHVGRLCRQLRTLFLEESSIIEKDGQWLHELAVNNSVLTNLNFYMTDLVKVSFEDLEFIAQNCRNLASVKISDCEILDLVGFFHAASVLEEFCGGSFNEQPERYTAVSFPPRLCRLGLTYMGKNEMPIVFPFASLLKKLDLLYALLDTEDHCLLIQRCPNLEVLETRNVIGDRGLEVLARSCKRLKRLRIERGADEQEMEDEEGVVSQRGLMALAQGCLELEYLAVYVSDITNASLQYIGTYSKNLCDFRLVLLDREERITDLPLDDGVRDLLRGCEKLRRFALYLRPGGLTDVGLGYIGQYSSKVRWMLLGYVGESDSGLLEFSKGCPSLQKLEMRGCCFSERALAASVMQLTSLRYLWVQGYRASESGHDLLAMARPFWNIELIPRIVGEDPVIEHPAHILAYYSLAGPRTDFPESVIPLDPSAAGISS
T1 sequence (P01106 1-150): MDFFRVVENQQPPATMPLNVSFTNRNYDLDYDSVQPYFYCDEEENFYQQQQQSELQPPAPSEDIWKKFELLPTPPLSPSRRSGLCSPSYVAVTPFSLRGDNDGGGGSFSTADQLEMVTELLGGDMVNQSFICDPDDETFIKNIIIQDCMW
Chain of GhTPL (as listed by the source): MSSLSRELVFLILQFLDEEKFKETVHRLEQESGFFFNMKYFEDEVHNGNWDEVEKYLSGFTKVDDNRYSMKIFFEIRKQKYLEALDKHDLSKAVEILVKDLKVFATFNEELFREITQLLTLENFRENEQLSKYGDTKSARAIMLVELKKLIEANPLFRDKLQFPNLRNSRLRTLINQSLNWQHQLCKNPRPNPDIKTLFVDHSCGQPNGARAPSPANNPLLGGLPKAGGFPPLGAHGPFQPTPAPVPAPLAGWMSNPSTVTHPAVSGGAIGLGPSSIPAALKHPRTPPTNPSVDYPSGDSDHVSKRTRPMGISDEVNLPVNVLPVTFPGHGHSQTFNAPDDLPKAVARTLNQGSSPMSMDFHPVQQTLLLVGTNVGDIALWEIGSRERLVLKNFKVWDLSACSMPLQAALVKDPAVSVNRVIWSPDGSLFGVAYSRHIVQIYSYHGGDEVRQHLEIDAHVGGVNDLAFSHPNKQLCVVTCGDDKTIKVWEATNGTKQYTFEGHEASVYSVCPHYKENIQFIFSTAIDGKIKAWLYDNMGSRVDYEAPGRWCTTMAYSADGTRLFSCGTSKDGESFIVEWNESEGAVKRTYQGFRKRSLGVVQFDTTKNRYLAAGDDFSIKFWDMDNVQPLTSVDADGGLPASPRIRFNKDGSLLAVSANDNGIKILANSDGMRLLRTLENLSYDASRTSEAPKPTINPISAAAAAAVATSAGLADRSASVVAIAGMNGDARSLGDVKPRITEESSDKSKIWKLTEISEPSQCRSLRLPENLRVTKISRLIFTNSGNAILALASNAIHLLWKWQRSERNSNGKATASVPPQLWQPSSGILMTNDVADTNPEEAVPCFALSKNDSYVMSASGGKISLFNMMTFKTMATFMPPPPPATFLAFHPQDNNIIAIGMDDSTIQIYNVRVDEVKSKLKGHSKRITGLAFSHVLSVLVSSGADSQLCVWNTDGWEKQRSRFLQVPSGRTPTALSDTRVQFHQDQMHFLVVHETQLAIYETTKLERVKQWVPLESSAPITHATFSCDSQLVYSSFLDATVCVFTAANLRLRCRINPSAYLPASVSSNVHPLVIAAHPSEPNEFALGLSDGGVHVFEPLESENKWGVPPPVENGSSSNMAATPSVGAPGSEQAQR

B1: GhJAZ1: cotton JAZ1 protein, gene number Gh_A05G0260, sequence SEQ ID No. 4; prokaryotically expressed with His tag, about 30 KD (protein)
chain: MSSCSESTAMKPARSPEKPSFAQTCNLLSQYLKEKGSFGDLSLGMTCNVEANGTPVVPPPTMNLFPLNDKSDDVCGRNGGNPKNLTSMDLFPQQAGLASKDDSPNKLEPQTAPMTIFYGGQVIVFNDFPANKAKEIMLLASNSSSQSNNSFNPIPFTSSIARSPIESSIGVPPTSKPVHPAQRAVPGDLPIARRASLHRFLEKRKDRITAKAPYQINNSAAAPSLSGDNKSWLGLAAQSP
modifications: His tag
notes: prokaryotically expressed with His tag, about 30 KD
[1]
  fluorescence with GhCOI1 after applying luciferase substrate: weaker fluorescence
[2]
  interaction with GhTPL: interacts
[3]
  interaction with first 150 amino acids truncated c-Myc: strong interactions
